First the molecules themselves.
B1: STIM1 CC1_([TM-distal])-CC2 K382E/K384E/K385E/K386E (domain or fragment, human, UniProt Q13586 312-387, looked up)
chain: SRQKYAEEELEQVREALRKAEKELESHSSWYAPEALQKWLQLTHEVEVQYYNIKKQNAEKQLLVAKEGAEEIEEER
B2: STIM1 CC1_([TM-distal])-CC2 A380R (domain or fragment, human, UniProt Q13586 312-387, looked up)
chain: B1 chain with A69R, E71K, E73K, E74K, E75K
B3: STIM1 CC1_([TM-distal])-CC2 I383R (domain or fragment, human, UniProt Q13586 312-387, looked up)
chain: B1 chain with E71K, I72R, E73K, E74K, E75K
B4: STIM1 CC1_([TM-distal])-CC2 E318Q/E319Q/E320Q/E322Q (domain or fragment, human, UniProt Q13586 312-387, looked up)
chain: B1 chain with E7Q, E8Q, E9Q, E11Q, E71K, E73K, E74K, E75K

Substitutions are numbered along the chain they refer to. Names may count otherwise.

In data set [1] the target is B4. The data set can be described thus: pull-down.
The target in data set [2] is STIM1 CC1_([TM-distal])-CC2 V324P (human, UniProt Q13586 312-387, V324P). The data set can be described thus: pull-down.
STIM1 CC1_([TM-distal])-CC2 V324P, sequence (Q13586 312-387 V324P): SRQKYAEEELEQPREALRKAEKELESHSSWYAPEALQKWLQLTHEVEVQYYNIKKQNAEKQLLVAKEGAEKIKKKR
The target of data set [3] is B2. As to the kind of experiment: pull-down.
The target in data set [4] is B3. As to the kind of experiment: pull-down.
The data set “SEC-MALS” concerns the molecule itself. As to the kind of experiment: SEC-MALS.
The target of data set [5] is STIM1 CC1_([TM-distal])-CC2 (residues 312-387) (human, UniProt Q13586 312-387). As to the kind of experiment: NMR titration.

The record followed here is article PMC3927877 (Nature Communications, 2013).

In the case of ELNELAEFARLQDQLDHRGDH (domain or fragment, human, UniProt Q96D31 272-292, looked up) [MBP-Orai1 C_(272–292)], the binding result in data set [1], in data set [2], in data set [3] and in data set [4] was “binds” throughout. With B1, in “SEC-MALS”, the binding result was “binds”.

For B2, the binding result in “SEC-MALS” is “binds”. On the same count and under the same terms, the value for B3 was “binds”. For ELNELAEFARLQDQLDHRGDH (peptide, UniProt Q96D31 272-292, looked up) [Orai1 C_(272–292)], the equilibrium dissociation constant (Kd) in data set [5] was in the range of 100 to 600 µM. As for B4, in “SEC-MALS”, the binding result is “binds”.
